Article PMC10308643, “Nesfatin-3 possesses divalent metal ion binding properties, which remain hidden in the nucleobindin-2 precursor protein” (Cell Communication and Signaling : CCS, 2023)
“And” between values parts separate entries of the source, which are not always exact repeats. Equal values may be shown once.

Legend:
[1] = molecular target: nesfatin-3 from Gallus gallus (Gallus gallus); assay: AUC; sedimentation velocity, c(s) analysis; 0.5, 0.75 and 1.0 mg/ml protein in 20 mM Tris pH 7.5, 150 mM NaCl, 300 µM ZnCl2; 20 °C, 50 000 rpm; monomer-dimer
[2] = molecular target: nesfatin-3 from Gallus gallus (Gallus gallus); assay: AUC; sedimentation velocity, c(s) analysis; 0.5, 0.75 and 1.0 mg/ml protein in 20 mM Tris pH 7.5, 150 mM NaCl, 10 mM MgCl2; 20 °C, 50 000 rpm; monomer-dimer
[3] = molecular target: nesfatin-3 from Gallus gallus (Gallus gallus); assay: AUC; sedimentation velocity, c(s) analysis; 0.5, 0.75 and 1.0 mg/ml protein in 20 mM Tris pH 7.5, 150 mM NaCl, 5 mM EDTA (apo form); 20 °C, 50 000 rpm; monomer-dimer
[4] = molecular target: nesfatin-3 from Gallus gallus (Gallus gallus); assay: AUC; sedimentation velocity, c(s) analysis; 0.5, 0.75 and 1.0 mg/ml protein in 20 mM Tris pH 7.5, 150 mM NaCl, 800 µM ZnCl2; 20 °C, 50 000 rpm; monomer-dimer(-tetramer)
[5] = molecular target: nesfatin-3 from Gallus gallus (Gallus gallus); assay: AUC; sedimentation velocity, c(s) analysis; 0.5, 0.75 and 1.0 mg/ml protein in 20 mM Tris pH 7.5, 150 mM NaCl, 10 mM CaCl2; 20 °C, 50 000 rpm; monomer-dimer
[6] = molecular target: nesfatin-3 from Gallus gallus (Gallus gallus); assay: AUC; sedimentation velocity, c(s) analysis; 0.5, 0.75 and 1.0 mg/ml protein in 20 mM Tris pH 7.5, 150 mM NaCl, 100 µM ZnCl2; 20 °C, 50 000 rpm; monomer-dimer(-tetramer)
[7] = molecular target: the molecule itself; assay: AUC; sedimentation velocity, c(s) analysis; 0.5, 0.75 and 1.0 mg/ml protein in 20 mM Tris pH 7.5, 150 mM NaCl, 5 mM EDTA (apo form); 20 °C, 50 000 rpm; monomer-dimer
[8] = molecular target: the molecule itself; assay: as above; remark: listed apart in the source
[9] = molecular target: the molecule itself; assay: AUC; sedimentation velocity, c(s) analysis; 0.5, 0.75 and 1.0 mg/ml protein in 20 mM Tris pH 7.5, 150 mM NaCl, 10 mM MgCl2; 20 °C, 50 000 rpm; monomer-dimer

Row | Molecule | percent dimer [1] | dimer-to-monomer ratio (dimer:monomer) [2] | percent dimer [2] | percent dimer [3] | stoichiometry N [3] | percent dimer [4] | percent dimer [5] | percent dimer [6] | stoichiometry N [7] | percent dimer [8] | percent dimer [9]
1 | nesfatin-3 from Gallus gallus (domain or fragment) | 59% and 64% and 70% | 9 | 100% and 83% and 92% | 75% and 76% and 77% | 2 | 90% and 91% and 88% | 76% and 77% and 74% | 74% and 80% and 79% | – | – | –
2 | nesfatin-3 from Homo sapiens (domain or fragment, UniProt P80303 190-420, looked up, also called hsNesfatin-3; apo-hsNesfatin-3; source: expressed from pQE-80L/HRV3C and purified as reported previously [16, 17]) EYLKTLNEEKRKEEESKFEEMKKKHENHPKVNHPGSKDQLKEVWEETDGLDPNDFDPKTFFKLHDVNSDGFLDEQELEALFTKELEKVYDPKNEEDDMVEMEEERLRMREHVMNEVDTNKDRLVTLEEFLKATEKKEFLEPDSWETLDQQQFFTEEELKEYENIIALQENELKKKADELQKQKEELQRQHDQLEAQKLEYHQVIQQMEQKKLQQGIPPSGPAGELKFEPHI | – | – | – | – | – | – | – | – | 2 | 100% | 100%
